Molecular target: human NRP1 protein (human, UniProt O14786 22-856)
Test: ELISA

human NRP1 protein, sequence (O14786 22-856): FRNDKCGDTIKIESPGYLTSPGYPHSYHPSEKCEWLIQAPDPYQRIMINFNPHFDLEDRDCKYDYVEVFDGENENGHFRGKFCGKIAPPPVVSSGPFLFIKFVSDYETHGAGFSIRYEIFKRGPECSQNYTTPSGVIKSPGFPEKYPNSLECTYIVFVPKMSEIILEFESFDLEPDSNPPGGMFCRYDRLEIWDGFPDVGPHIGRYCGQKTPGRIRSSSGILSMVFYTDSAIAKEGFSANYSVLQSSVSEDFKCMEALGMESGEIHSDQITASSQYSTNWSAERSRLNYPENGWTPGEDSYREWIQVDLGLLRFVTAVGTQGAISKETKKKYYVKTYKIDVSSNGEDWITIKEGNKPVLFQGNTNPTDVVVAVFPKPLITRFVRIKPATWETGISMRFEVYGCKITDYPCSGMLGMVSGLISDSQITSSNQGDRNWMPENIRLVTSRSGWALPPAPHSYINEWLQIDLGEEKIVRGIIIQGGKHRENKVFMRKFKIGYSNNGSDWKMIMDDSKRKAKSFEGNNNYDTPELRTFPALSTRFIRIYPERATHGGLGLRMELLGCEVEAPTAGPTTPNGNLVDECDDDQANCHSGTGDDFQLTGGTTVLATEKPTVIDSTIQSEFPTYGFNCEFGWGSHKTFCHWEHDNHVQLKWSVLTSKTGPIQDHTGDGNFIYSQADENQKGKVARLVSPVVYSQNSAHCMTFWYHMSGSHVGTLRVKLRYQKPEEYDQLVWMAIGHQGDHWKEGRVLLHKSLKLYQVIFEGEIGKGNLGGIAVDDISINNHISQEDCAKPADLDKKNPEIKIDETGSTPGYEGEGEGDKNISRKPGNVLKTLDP

Binder	Kd
1A03 anti-NRP1 IgG antibody (antibody, V domains shown) VH: EVQLLESGGGLVQFGGSLRLSQAASGFTFSSYYMSWVRQAFGKGLEWVSAISFGSSNKYYADSVQGRFTISRDNSKNTLYLQMNELRAEDTAVYYCARRKKSFDYWGQGTLVTVSS VL: QSVLTQFFSASGTPGQRVTISCSGFSSNIGNNDVSWYQQLFGTAPKLLIYSCNNRPSGVPDRFSGSKSGTSASLAISGLSSDEADYYCGAWVASLSAYVFGGGTKLTVTL	1110 nM
IRCR-101 (3H10 converted into IgG format) (antibody, V domains shown) VH: EVQLLESGGGLVQFQQSLRLSQAASQFTFSSYYMSWVRQAFGKGLEWVSAISPGSSNKYYADSVKGRFTISRDNSKNTLYLQMNELRAEDTAVYYCARRKYMFDYWGQGTLVTVSS VL: GSVLTQPPSASGTPGQRVTISCTGESSNIGNNDVYWYQQLPGTAFKLLIYSQSNRSGMPDRFSGSKSGTSASLAISGLRSEDEADYYCASWDSSLSGYVFGGGTKLTVTL	426 nM

Source: US20190227052A1 (published 2019)
